Measured values as given in patent publication US11844843 (DYNE THERAPEUTICS, dated 2023).

Legend:
[1] = biological target: T1, recombinant cynomolgus monkey (Macaca fascicularis) TfR1 (cynomolgus monkey (Macaca fascicularis), UniProt Q5RDH6 87-760 (Pongo abelii entry), limits assumed); assay: ELISA on cTfR1, Fab conjugated to DMPK-targeting oligonucleotide, % normalized RFUs
T1 construct: Recombinant protein; also called cTfR1; cyTfR1
T1 chain: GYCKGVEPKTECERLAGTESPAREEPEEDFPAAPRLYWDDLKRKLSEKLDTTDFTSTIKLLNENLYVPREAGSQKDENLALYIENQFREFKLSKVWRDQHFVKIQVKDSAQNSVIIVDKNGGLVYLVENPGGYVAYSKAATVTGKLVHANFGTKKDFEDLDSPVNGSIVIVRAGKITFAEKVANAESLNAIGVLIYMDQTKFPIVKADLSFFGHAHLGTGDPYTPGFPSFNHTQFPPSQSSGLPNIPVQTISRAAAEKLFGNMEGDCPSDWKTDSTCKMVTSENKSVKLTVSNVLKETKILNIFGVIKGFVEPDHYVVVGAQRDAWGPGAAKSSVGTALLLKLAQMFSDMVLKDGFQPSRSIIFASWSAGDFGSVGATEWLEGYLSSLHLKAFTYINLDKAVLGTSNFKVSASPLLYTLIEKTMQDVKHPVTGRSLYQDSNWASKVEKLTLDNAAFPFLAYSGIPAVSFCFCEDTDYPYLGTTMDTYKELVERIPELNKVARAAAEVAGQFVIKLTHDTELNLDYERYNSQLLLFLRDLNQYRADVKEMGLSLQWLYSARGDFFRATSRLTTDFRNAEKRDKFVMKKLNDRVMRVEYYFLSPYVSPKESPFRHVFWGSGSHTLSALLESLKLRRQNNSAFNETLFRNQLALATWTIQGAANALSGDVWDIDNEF

[2] = biological target: T2, recombinant human TfR1 (transferrin receptor protein 1) (human, UniProt P02786 89-760); assay: Table 14, Fab-ASO300 conjugate; method not named
T2 construct: Recombinant protein in SPR and ELISA; they were assigned to this molecule; also called hTfR1; huTfR1

[3] = biological target: T1, recombinant cynomolgus monkey (Macaca …); assay: Table 14, Fab-ASO300 conjugate; method not named
[4] = biological target: T2, recombinant human TfR1 (transferrin …); assay: ELISA, recombinant TfR1 coated, Fab-ASO300 conjugate (row 'Conjugate binding affinity ELISA')
[5] = biological target: T1, recombinant cynomolgus monkey (Macaca …); assay: as above
[6] = biological target: T2, recombinant human TfR1 (transferrin …); assay: ELISA on hTfR1, Fab conjugated to DMPK-targeting oligonucleotide, % normalized RFUs

EC50 [1]: 2.8 nM
DMPK oligo conjugate binding [2]: 13.9 nM
DMPK oligo conjugate binding [3]: 13.9 nM
EC50 [4]: 23.7 nM
EC50 [5]: 3.3 nM
EC50 [6]: 25.5 nM
B1: conjugate of humanized anti-TfR Fab 5H12 VH5 (C33Y)/Vκ4 with DMPK-targeting oligonucleotide ASO300 (Fab, V domains shown)
VH: QVQLVQSGAEVKKPGASVKVSCKASGYSFTDYYINWVRQAPGQGLEWMGWIYPGSGNTRYSERFKGRVTITRDTSASTAYMELSSLRSEDTAVYYCAREDYYPYHGMDYWGQGTLVTVSS
VL: DIVMTQSPDSLAVSLGERATINCRASESVDGYDNSFMHWYQQKPGQPPKLLIFRASNLESGVPDRFSGSGSGTDFTLTISSLQAEDVAVYYCQQSSEDPWTFGQGTKLEIKR
modifications: oligonucleotide ASO300 conjugated to the Fab via linker; residue and chain not stated
